In patent publication US20150045540A1 (published 2015) one finds EC50 data, which are given here for 13 molecules.

As a reminder, the EC50 is the concentration at which the effect is half-maximal.

T1: Placenta Growth Factor (PlGF), human (human, UniProt P49763 21-149)
T1 chain: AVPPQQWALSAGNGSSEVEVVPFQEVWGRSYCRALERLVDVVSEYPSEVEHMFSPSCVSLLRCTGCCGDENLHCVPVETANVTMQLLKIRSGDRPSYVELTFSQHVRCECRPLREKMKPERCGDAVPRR

B1: HC 9/SLC 7 (antibody)
chain 1: GQGTLVTVSSASTKGPSVFQPVLHQPPAMSSALGTTIRLTCTLRNDHDIGVYSVYWYQQRPGHPPRFLLRYFSQSDKSQGPQVPPRFSGSKDVARNRGYLSISELQPEDEAMYYCAMGARSRCWPRGFQSKHNSVTHVFGSGTQLTVLSQPKATPSVTLFPPSSEELQANKATLVCLMNDFYPGILTVTWKADGTPITQGVEMTTPSKQSNNKYAASSYLSLTPEQWRSRRSYSCQVMHEGSTVEKTVAPAECS
chain 2: MSWAPVLLMLFVYCTGCGPQPVLHQPPAMSSALGTTIRLTCTLRNDHDIGVYSVYWYQQRPGHPPRFLLRYFSQSDKSQGPQVPPRFSGSKDVARNRGYLSISVTHVFGSGTQLTVLSQPKATPQVQLVQ
B2: HC 9/SLC 8 (antibody)
chain 1: B1 chain 1
chain 2: MSWAPVLLMLFVYCTGCGPQPVLHQPPAMSSALGTTIRLTCTLRNDHDIGVYSVYWYQQRPGHPPRFLLRYFSQSDKSQGPQVPPRFSGSKDVARNRGYLSISVTHVFGSGTQLTVLSQPKATPSQVQLVQ
B3: HC 2/SLC 7 (antibody)
chain 1: GQGTLVTVSSASQPVLHQPPAMSSALGTTIRLTCTLRNDHDIGVYSVYWYQQRPGHPPRFLLRYFSQSDKSQGPQVPPRFSGSKDVARNRGYLSISELQPEDEAMYYCAMGARSRCWPRGFQSKHNSVTHVFGSGTQLTVLSQPKATPSVTLFPPSSEELQANKATLVCLMNDFYPGILTVTWKADGTPITQGVEMTTPSKQSNNKYAASSYLSLTPEQWRSRRSYSCQVMHEGSTVEKTVAPAECS
chain 2: B1 chain 2
B4: HC 3/SLC 6 (antibody)
chain 1: GQGTLVTVSSASTQPVLHQPPAMSSALGTTIRLTCTLRNDHDIGVYSVYWYQQRPGHPPRFLLRYFSQSDKSQGPQVPPRFSGSKDVARNRGYLSISELQPEDEAMYYCAMGARSRCWPRGFQSKHNSVTHVFGSGTQLTVLSQPKATPSVTLFPPSSEELQANKATLVCLMNDFYPGILTVTWKADGTPITQGVEMTTPSKQSNNKYAASSYLSLTPEQWRSRRSYSCQVMHEGSTVEKTVAPAECS
chain 2: MSWAPVLLMLFVYCTGCGPQPVLHQPPAMSSALGTTIRLTCTLRNDHDIGVYSVYWYQQRPGHPPRFLLRYFSQSDKSQGPQVPPRFSGSKDVARNRGYLSISVTHVFGSGTQLTVLSQPKATQVQLVQ
B5: HC 4/SLC 6 (antibody)
chain 1: GQGTLVTVSSASTKQPVLHQPPAMSSALGTTIRLTCTLRNDHDIGVYSVYWYQQRPGHPPRFLLRYFSQSDKSQGPQVPPRFSGSKDVARNRGYLSISELQPEDEAMYYCAMGARSRCWPRGFQSKHNSVTHVFGSGTQLTVLSQPKATPSVTLFPPSSEELQANKATLVCLMNDFYPGILTVTWKADGTPITQGVEMTTPSKQSNNKYAASSYLSLTPEQWRSRRSYSCQVMHEGSTVEKTVAPAECS
chain 2: B4 chain 2
B6: HC 3/SLC 9 (antibody)
chain 1: B4 chain 1
chain 2: MSWAPVLLMLFVYCTGCGPQPVLHQPPAMSSALGTTIRLTCTLRNDHDIGVYSVYWYQQRPGHPPRFLLRYFSQSDKSQGPQVPPRFSGSKDVARNRGYLSISVTHVFGSGTQLTVLSQPKATPSVQVQLVQ
B7: HC 3/SLC 15 (antibody)
chain 1: B4 chain 1
chain 2: MSWAPVLLMLFVYCTGCGPQPVLHQPPAMSSALGTTIRLTCTLRNDHDIGVYSVYWYQQRPGHPPRFLLRYFSQSDKSQGPQVPPRFSGSKDVARNRGYLSISVTHVFGSGTQLTVLSQPKATPSVTGGGGSQVQLVQ
B8: HC 7/SLC 6 (antibody)
chain 1: GQGTLVTVSSASTKGPSQPVLHQPPAMSSALGTTIRLTCTLRNDHDIGVYSVYWYQQRPGHPPRFLLRYFSQSDKSQGPQVPPRFSGSKDVARNRGYLSISELQPEDEAMYYCAMGARSRCWPRGFQSKHNSVTHVFGSGTQLTVLSQPKATPSVTLFPPSSEELQANKATLVCLMNDFYPGILTVTWKADGTPITQGVEMTTPSKQSNNKYAASSYLSLTPEQWRSRRSYSCQVMHEGSTVEKTVAPAECS
chain 2: B4 chain 2
B9: HC 6/SLC 5 (antibody)
chain 1: GQGTLVTVSSASTKGPQPVLHQPPAMSSALGTTIRLTCTLRNDHDIGVYSVYWYQQRPGHPPRFLLRYFSQSDKSQGPQVPPRFSGSKDVARNRGYLSISELQPEDEAMYYCAMGARSRCWPRGFQSKHNSVTHVFGSGTQLTVLSQPKATPSVTLFPPSSEELQANKATLVCLMNDFYPGILTVTWKADGTPITQGVEMTTPSKQSNNKYAASSYLSLTPEQWRSRRSYSCQVMHEGSTVEKTVAPAECS
chain 2: MSWAPVLLMLFVYCTGCGPQPVLHQPPAMSSALGTTIRLTCTLRNDHDIGVYSVYWYQQRPGHPPRFLLRYFSQSDKSQGPQVPPRFSGSKDVARNRGYLSISVTHVFGSGTQLTVLSQPKAQVQLVQ
B10: HC 8/SLC 2 (antibody)
chain 1: GQGTLVTVSSASTKGPSVQPVLHQPPAMSSALGTTIRLTCTLRNDHDIGVYSVYWYQQRPGHPPRFLLRYFSQSDKSQGPQVPPRFSGSKDVARNRGYLSISELQPEDEAMYYCAMGARSRCWPRGFQSKHNSVTHVFGSGTQLTVLSQPKATPSVTLFPPSSEELQANKATLVCLMNDFYPGILTVTWKADGTPITQGVEMTTPSKQSNNKYAASSYLSLTPEQWRSRRSYSCQVMHEGSTVEKTVAPAECS
chain 2: MSWAPVLLMLFVYCTGCGPQPVLHQPPAMSSALGTTIRLTCTLRNDHDIGVYSVYWYQQRPGHPPRFLLRYFSQSDKSQGPQVPPRFSGSKDVARNRGYLSISVTHVFGSGTQLTVLSQQVQLVQ
B11: HC 8/SLC 9 (antibody)
chain 1: B10 chain 1
chain 2: B6 chain 2
B12: HC 8/SLC 8 (antibody)
chain 1: B10 chain 1
chain 2: B2 chain 2
B13: HC 8/SLC 4 (antibody)
chain 1: B10 chain 1
chain 2: MSWAPVLLMLFVYCTGCGPQPVLHQPPAMSSALGTTIRLTCTLRNDHDIGVYSVYWYQQRPGHPPRFLLRYFSQSDKSQGPQVPPRFSGSKDVARNRGYLSISVTHVFGSGTQLTVLSQPKQVQLVQ

Chain of Hepatocyte Growth Factor (HGF), human (P14210 32-728): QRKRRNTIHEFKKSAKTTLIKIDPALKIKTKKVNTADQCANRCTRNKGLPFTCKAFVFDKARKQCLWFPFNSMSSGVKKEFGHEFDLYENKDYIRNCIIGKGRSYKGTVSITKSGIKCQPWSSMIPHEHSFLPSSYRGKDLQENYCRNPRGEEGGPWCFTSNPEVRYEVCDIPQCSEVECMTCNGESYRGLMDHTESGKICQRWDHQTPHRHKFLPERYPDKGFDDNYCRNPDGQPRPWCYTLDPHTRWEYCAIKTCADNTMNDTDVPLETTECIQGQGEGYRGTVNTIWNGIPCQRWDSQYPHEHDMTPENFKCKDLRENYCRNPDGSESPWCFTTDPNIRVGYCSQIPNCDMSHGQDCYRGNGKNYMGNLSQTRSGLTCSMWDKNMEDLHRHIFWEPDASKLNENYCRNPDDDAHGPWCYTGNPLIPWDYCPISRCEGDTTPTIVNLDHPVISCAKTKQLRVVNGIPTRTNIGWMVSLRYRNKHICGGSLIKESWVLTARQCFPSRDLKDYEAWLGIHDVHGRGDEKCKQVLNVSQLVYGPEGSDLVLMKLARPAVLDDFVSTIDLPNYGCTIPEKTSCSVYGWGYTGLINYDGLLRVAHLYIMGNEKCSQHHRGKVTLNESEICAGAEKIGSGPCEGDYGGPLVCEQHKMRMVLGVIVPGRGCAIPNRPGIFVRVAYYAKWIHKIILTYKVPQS

The target of one assay is T1, Placenta Growth Factor (PlGF), human. Kind of assay: ELISA.
The molecule B1 came in with an EC50 of 63 pM.
On the same count and under the same terms, with B2 the figure was 63 pM.
Consider B3, for which the EC50 came out at 148 pM.
With B4, the EC50 was 163 pM.
Same read-out and setting: to B5 belongs 208 pM; to B6, 130 pM.
Consider B7, for which the response was half-maximal at 57 pM (EC50).
Molecule B8 yielded an EC50 of 153 pM.
On the same count and under the same terms, with B9 the figure was 251 pM.
Same read-out and setting: to B10 belongs 227 pM; to B11, 45 pM.
On the same count and under the same terms, to B12 belongs 69 pM; to B13, 281 pM.

Another assay addresses Hepatocyte Growth Factor (HGF), human (human, UniProt P14210 32-728). Kind of assay: ELISA. For orientation: In an ELISA, binding on a coated surface is turned into a signal by an enzyme label.
The molecule B1 showed an EC50 of 59 pM.
Still for that read-out and setting: to B2 belongs 61 pM.
The same measure, in the same setting: with B3 the figure was 55 pM.
The same measure, in the same setting: with B4 the figure was 57 pM; with B5, 63 pM.
As to B6, the EC50 came out at 49 pM.
The same measure, in the same setting: with B7 the figure was around 41 pM; with B8, 62 pM.
B9 had an EC50 of 66 pM.
Same read-out and setting: to B10 belongs 59 pM; to B11, 49 pM; to B12, 56 pM.
The same measure, in the same setting: with B13 the figure was 71 pM.
